The results in this text go back to patent US20240424125A1.

In experiment [1] the target is human FRα on cells (human) (UniProt P15328). Put plainly: flow cytometry on IGROV-1 cells (endogenous FRα), negative control. Also noted: unit not given here. On the technique in general: Flow cytometry measures light scatter and fluorescence of single cells or particles in a stream.
For experiment [2] the target is unchanged. Put plainly: flow cytometry on JEG-3 cells (endogenous FRα), negative control. The arrangement: unit not given here.

Chain of human FRα on cells (human) (P15328 25-234 limits assumed): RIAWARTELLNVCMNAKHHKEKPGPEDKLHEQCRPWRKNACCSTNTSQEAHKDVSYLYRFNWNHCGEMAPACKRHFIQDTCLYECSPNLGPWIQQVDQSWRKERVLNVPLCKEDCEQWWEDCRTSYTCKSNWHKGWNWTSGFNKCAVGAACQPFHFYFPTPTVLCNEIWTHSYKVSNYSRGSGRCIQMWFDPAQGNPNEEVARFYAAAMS

For Human IgG (antibody), the values for the Bmax in experiment [1] and in experiment [2] were 208 and 144, respectively.
